{
  "source": "patent US20080044405A1",
  "about": "(Harvard, published 2008)",
  "key": {"[1]": {"target": "T1, HLA-DR1 (soluble, produced by Drosophila S2 cell lines) (human)", "test": "fluorescence polarization, DR1-CLIP-AlexaFluor488 0.1 uM at 37 C in the presence of 100 uM KAuCl4, no DM, no excess HA peptide"}, "[2]": {"target": "T1, HLA-DR1 (soluble, produced by …)", "test": "fluorescence polarization, DR1-CLIP-AlexaFluor488 0.1 uM at 37 C in the presence of 100 uM K2PdCl4, no DM, no excess HA peptide"}, "[3]": {"target": "T1, HLA-DR1 (soluble, produced by …)", "test": "fluorescence polarization, DR1-CLIP-AlexaFluor488 0.1 uM at 37 C in the presence of 100 uM K2PtCl4, no DM, no excess HA peptide"}, "[4]": {"target": "T1, HLA-DR1 (soluble, produced by …)", "test": "fluorescence polarization, DR1-CLIP-AlexaFluor488 0.1 uM at 37 C in the presence of 100 uM cisplatin, no DM, no excess HA peptide"}, "[5]": {"target": "T1, HLA-DR1 (soluble, produced by …)", "test": "fluorescence polarization, DR1-CLIP-AlexaFluor488 0.1 uM at 37 C with DM (0.1 uM) and excess unlabeled HA peptide (100 uM), no metal"}, "[6]": {"target": "T1, HLA-DR1 (soluble, produced by …)", "test": "fluorescence polarization, DR1-CLIP-AlexaFluor488 0.1 uM at 37 C without DM, with excess unlabeled HA peptide (100 uM), no metal (intrinsic dissociation)"}},
  "data": [
    {"binder": "CPVSKMRMATPLLMQA (Cys labelled with AlexaFluor 488 C5 maleimide, an N-terminal Cys is added to CLIP(87-101); also called af-CLIP; CLIP-AlexaFluor488)", "note": "[Alexa-Fluor 488-labeled CLIP peptide]", "values": [
      {"measurement": "t1/2 of CLIP dissociation", "setting": "[1]", "result": 2.76, "unit": "h"},
      {"measurement": "t1/2 of CLIP dissociation", "setting": "[2]", "result": 1.59, "unit": "h"},
      {"measurement": "t1/2 of CLIP dissociation", "setting": "[3]", "result": 3.05, "unit": "h"},
      {"measurement": "t1/2 of CLIP dissociation", "setting": "[4]", "result": 4.34, "unit": "h"},
      {"measurement": "t1/2 of CLIP dissociation", "setting": "[5]", "result": 8.66, "unit": "h"},
      {"measurement": "t1/2 of CLIP dissociation", "setting": "[6]", "result": 94.6, "unit": "h"}
    ]}
  ]
}
